Laboratory results published in patent US12686712B2, “Antibody, related use, pharmaceutical composition including method for diagnosing fungal infections, fungal infection diagnosis kit and method for treating fungal infections” (priority 2020, dated 2026).
Several values for one entry are separate records, joined by “and”; a condition that tells them apart may be missing. Equal entries are not always repeated.

B1: AF1/CC5: murine IgM monoclonal antibody against chitooligomers (chitotriose); VH SEQ ID NO: 19, VL SEQ ID NO: 20 (antibody, listed as Mus musculus, V domains shown)
VH: STGQVKLEESGGGLVQPGGSMKLSCAASGFTFSDAWMDWVRQSPEKGLEWVAEIRSKANNHATYYAESVKGRFTISRDDSKSSVYLQMNSLRAEDTGIYYCTRHRYDGFDYWGQGTTLTFP
VL: DYFLASQGEVTMTCSASSSISYMHWYQQKPGTSPKRWIYDTSKLASGVPARFSGSGSGTSYSLTISSMEAEDAATYYCHQRSSYPCTFGAGTKLELKRADAAPTVSLETKTS

Key:
[1] = test system: C. neoformans; assay: Minimum inhibiting concentration (MIC) assay, alone or in association with AmB or FLC; type: cell-based, Cryptococcus neoformans; details: 48 hours at 37° C.
Method: C. neoformans cells were cultivated in RPMI 1640 buffered with MOPS in pH 7 at 10^5 cell/well density in 96-well plates in 200 μl final volume. Systems were supplemented with AcM at concentration (25 to 0.05 μg/ml), AmB (1 to 0.1 lμg/ml) or FLC (8 to 2 μg/ml), alone or in association. After 48 hours of incubation at 37° C. under agitation, cells were suspended by pipetting for spectrophotometer reading at 592 nm wavelength.
AcMs fungicide activity was tested through CIM test. […] It was assessed if AcMs association with AmB or FLC would trigger antifungal effects in sub-inhibiting concentrations, thus 1 μg/ml concentrations of AmB and 4 and 2 μg/ml to FLC in combination with AcMs different concentrations. To assess whether there was combining effect of AcMs with drug, it was used as drug action base in isolate form.

[2] = test system: C. neoformans strain H99; assay: Survival trial, lethal i.p. challenge; type: in vivo, Balb/C line mice; details: AmB standard dose 2.5 mg/kg alone; data not provided
Method: Balb/C line mice (n=7) were lethally challenged via i.p. with 10^5 cells in PBS of C. neoformans (H99) and treated 2 hours later with 100 μl of AmB (2.5 mg/kg and 0.25 mg/kg), 100 μl of AcM (85 μg/ml) and 100 μl of AcM and AmB combined solution (0.25 mg/kg). Control animals were challenged only by C. neoformans (H99) or only with 100 μl of a solution of PBS, AmB (2.5 mg/kg) or AcM (85 μg/ml) without fungus (adapted from Liedke et al.). Survival rate was achieved and analysis was extended up to 90 days after infection, presenting statistical value with p<0.005.
Mice were lethally challenged with inoculant i.p. of 1×10^5 cells of yeast C. neoformans strain H99. After 2 hours, they were treated with PBS (negative control), 85 μg/animal of AcM (HC6/DD11) in isolate form, 0.25 or 2.5 mg/kg of AmB in isolate form, and in synergic form, AcM keeping test concentrations. Treatments were repeated for another two times, with 10-day interval.

[3] = test system: C. albicans; assay: Indirect ELISA against intact cells using poly-L-Lysine (PL); type: binding, Candida albicans; details: 10^4 and 10^5 cells/ml
Method: (§1) For this test, C. neoformans (H99), Candida albicans, Giardia lamblia, human lung line cell A549 (ATCC), Escherichia coli and Staphylococcus aureus. Cells were washed in PBS three times and suspended at 10^7 cell/ml density in poly-L-Lysine (5 μg/ml in PBS) for adherence at night at 4° C. The next day, plates were blocked with PBS/BSA 5% and incubated for 1 hour at 37° C., then they are incubated for 1 hour at 37° C. with anti-chitooligomer AcM at 50 μg/ml concentration and diluted at 5 μg/ml. Then, washing with PBS/Tween 0.05% was performed for 3 times and anti-IgM murine peroxidase was added diluted 1:5000 and incubated for 2 hours at 37° C. Plates were washed again and TMB was added and incubated for 30 minutes at 37° C.
(§2) Reaction was stopped with HCl 1 N and reading with spectrophotometer at 450 nm. After this trial, seriated dilutions were performed at density of cells 10^7 until 10 cells/ml to fungi and 10^7 until 10^4 cells/ml to other cellular types and tested of AcM anti-chitooligomer at 25 μg/ml concentration, followed by the same procedures abovementioned. […]
(§3) In this trial, 10^7 cell/ml of C. albicans were used to perform an absorbance curve, in which it was observed that there was a 25 μg/ml concentration reliable signal of both AcM, as above such value the curve starts to enter in plateau, as provided in FIG. 9. […]

[4] = test system: C. neoformans (H99); assay: as above; type: binding, Cryptococcus neoformans; details: 10^4 and 10^5 cells/ml
Method: as §1, §2, §3

[5] = test system: Candida albicans; assay: Immunofluorescence of AcM anti-chitooligomer against intact cells; type: binding; details: AcM 25 μg/mL, 1 h at 37° C.; anti-IgM Alexa 568; calcofluor
Method: Fungal cells (10^6 cells)) were fastened (cacodylate paraformolaldehyde buffer 4%; 30 min) and blocked later (PBS/BSA 1%; 1 hour). Then, they were incubated with AcM anti-chitooligomer(25 μg/mL; 1 h at 37° C.) After washing with PBS, cells were incubated with mouse anti-IgM antibody conjugated at Alexa 568 (SIGMA; 1:1000). After PBS washing, cells were incubated with 25 μM of white calcofluor (Invitrogen) and washed again. Cellular suspensions were assembled in glass blades and assessed under microscope Olympus AX70, coupled to camera system (QImaging Retiga 1300) and assessed in QCapture suite V2.46 software.
From reliable and ELISA and Dot Blot trials, biological activity validation tests. Thus, AcMs were used through immunofluorescence (IF), using the pathogen Candida albicans as template. AcMs were efficient at fungal cellular wall labeling, showing the same profile whenever standard marker is used (lectin), data not provided.

[6] = test system: C. neoformans; assay: Melanization trial (L-DOPA); type: cell-based, Cryptococcus neoformans
Method: C. neoformans cultivation was performed as paragraph and cellular suspension (1×10^6 cells/ml) was cultivated for 72 hours in minimum media supplemented with 1 mM of L-DOPA in 96-well plate of U-shape bottom. Antibodies HC6/DD11 and AF1/CC5 were added to minimum media within 25 to 0.05 μg/ml concentration range. The plate was centrifuged and pigment development quantification was defined densitometrically upon image scanning by iBright FL1000 Invitrogen equipment.
AcM HC6/DD11 e AF1/CC5 established concentrations were 0.2 to 25 μg/ml. L-DOPA was used with substrate to melanization.
Pigmentation in C. neoformans was assessed through brown to black sedimentation observation in 96-well plate bottom. To document pigmentation or inhibition, plates were photographed over white surfaces (clear bottom), to enable differentiation between pigmented and non-pigmented populations. It shall be noted that every AcM dose presents fungal growth, however with negative pigmentation or partial inhibition.

[7] = test system: C. albicans; assay: Biofilm development, XTT reduction trial; type: cell-based, Candida albicans; details: AcM 25 μg/ml, 48 hours at 37° C., vs fungus without treatment, p<0.05
Method: (§4) C. neoformans (H99 and Cap67) and Candida albicans were cultivated in Sabouraud media for 24 hours at 30° C. Cellular suspensions were centrifuged for 5 minutes at 3000 g, washed 3 times in PBC and suspended in minimum media (20 mg/ml thiamin, 30 mm glucose, 26 mM glycine, 20 mM MgSO4, and 58.8 mM KH2PO4). Then, they were added to 96-well plates (100 μl/well—1×10^6 células/ml) and cultivated for 48 hours at 37° C. at presence of AcM (HC6/DD11 and AF1/CC5) and AcM anti-GXM 18B7 (only to H99) at 25 μg/ml concentration, keeping under agitation for 30 minutes, for AcM total homogenization with fungi. As control, drug AmB was used at 1 μg/ml concentration.
(§5) Two analysis systems were performed: in the first, cells were washed, so that non-adhering cells were removed and only cells bonded to biofilm under development remained; in the second system, cells were not washed and all cells adhered or not to substrate were quantified.
(§6) Viable cell metabolic activity in both trials was assessed by the method based on decrease of XTT (2-methoxy-4-nitro-5-sulfophenyl)-5-[(phenylamino) carbonyl]-2H-tetrazolium hydroxide) in spectrophotometer at 492 nm of wavelength.
(§7) AcMs were tested (25 μg/ml) against three fungus species (C. albicans, C. neoformans—H99—and acapsular mutant of C. neoformans—Cap67), with control by AcM anti-GXM 18B7 (25 μg/ml) only to H99. In the first assay (FIGS. 14A and B), cellular suspensions were washed to remove non-adhering cells to substrate. […] In second assay (FIGS. 14C and D), cellular suspensions were not washed, and again AcM inhibited biofilm development (p<0.05) compared to cell not treated with antibodies. In both assays, cell growth was observed.

[8] = test system: C. neoformans H99; assay: Biofilm development, XTT reduction trial; type: cell-based, Cryptococcus neoformans; details: AcM 25 μg/ml, 48 hours at 37° C., vs fungus without treatment, p<0.05
Method: as §4, §5, §6, §7
AcMs were compared to AcM anti-GXM 18B7 concerning biofilm development inhibition.

[9] = test system: acapsular mutant of C. neoformans Cap67; assay: Biofilm development, XTT reduction trial; type: cell-based, Cryptococcus neoformans; details: AcM 25 μg/ml, 48 hours at 37° C., vs fungus without treatment, p<0.05
Method: as §4, §5, §6, §7

Molecule	concentration with fungicide effect (control drug alone) [1]	death of infected animals [2]	ELISA signal in cell saturation curve [3]	ELISA signal in cell saturation curve [4]	fungal cellular wall labeling by immunofluorescence [5]	melanization in lower concentrations ([6]; concentrations lower than 1.6 μg/ml, p>0.05)	AcM concentration with partial inhibition of melanization/pigmentation ([6]; series 25 to 0.2 μg/ml, 72 hours, 1 mM L-DOPA, p<0.05)	biofilm development (XTT reduction) ([7]; non-washed cells)	biofilm development (XTT reduction) ([7]; washed cells)	biofilm development (XTT reduction) ([8]; non-washed cells)	biofilm development (XTT reduction) ([8]; washed cells)	biofilm development (XTT reduction) ([9]; non-washed cells)	biofilm development (XTT reduction) ([9]; washed cells)
OC(Cn1cncn1)(Cn1cncn1)c1ccc(F)cc1F [FLC, Fluconazole]	8 µg/mL	–	–	–	–	–	–	–	–	–	–	–	–
C[C@@H]1[C@H](O)[C@@H](C)/C=C/C=C/C=C/C=C/C=C/C=C/C=C/[C@H](O[C@@H]2O[C@H](C)[C@@H](O)[C@H](N)[C@@H]2O)C[C@@H]2O[C@](O)(C[C@@H](O)C[C@@H](O)[C@H](O)CC[C@@H](O)C[C@@H](O)CC(=O)O[C@H]1C)C[C@H](O)[C@H]2C(=O)O [AmB, amphotericin polyene B, reference compound]	1 µg/mL	did not die	–	–	–	–	–	–	–	–	–	–	–
B1	–	–	a plateau to both cells was achieved	a plateau to both cells was achieved	characteristic polar label	not significant inhibition	3.2 µg/mL and 1.6 µg/mL	reduced biofilm development significantly	reduced biofilm development significantly	reduced biofilm development significantly	reduced biofilm development significantly	reduced biofilm development significantly	reduced biofilm development significantly
